Results reported in article PMC5435866.

How the values were obtained:
Test in all cases: EMSA
Drosophila SLBP 4S-4A = molecular target: T1, Drosophila SLBP 4S-4A (UniProt Q9VAN6 1-276, S269A;S271A;S273A;S275A)
T1 sequence: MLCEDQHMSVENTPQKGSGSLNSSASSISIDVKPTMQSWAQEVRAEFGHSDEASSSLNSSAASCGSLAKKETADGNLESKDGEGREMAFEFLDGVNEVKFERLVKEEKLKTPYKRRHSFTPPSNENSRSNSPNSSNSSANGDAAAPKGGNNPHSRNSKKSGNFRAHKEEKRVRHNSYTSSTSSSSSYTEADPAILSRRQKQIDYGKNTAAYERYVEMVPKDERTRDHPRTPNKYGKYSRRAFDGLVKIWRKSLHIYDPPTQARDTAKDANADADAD

Drosophila SLBP ER = molecular target: T2, Drosophila SLBP ER (UniProt Q9VAN6 1-276, A210G;E212Q;R213C)
T2 sequence: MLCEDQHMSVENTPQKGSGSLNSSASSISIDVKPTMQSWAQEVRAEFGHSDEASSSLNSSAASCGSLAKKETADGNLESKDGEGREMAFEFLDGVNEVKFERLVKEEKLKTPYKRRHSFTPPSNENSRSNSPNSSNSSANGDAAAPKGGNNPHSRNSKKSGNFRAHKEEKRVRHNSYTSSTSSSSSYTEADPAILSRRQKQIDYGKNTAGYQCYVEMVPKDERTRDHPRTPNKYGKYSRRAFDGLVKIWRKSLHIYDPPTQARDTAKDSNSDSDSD

Drosophila SLBP 4S-4E = molecular target: T3, Drosophila SLBP 4S-4E (UniProt Q9VAN6 1-276, S269E;S271E;S273E;S275E)
T3 sequence: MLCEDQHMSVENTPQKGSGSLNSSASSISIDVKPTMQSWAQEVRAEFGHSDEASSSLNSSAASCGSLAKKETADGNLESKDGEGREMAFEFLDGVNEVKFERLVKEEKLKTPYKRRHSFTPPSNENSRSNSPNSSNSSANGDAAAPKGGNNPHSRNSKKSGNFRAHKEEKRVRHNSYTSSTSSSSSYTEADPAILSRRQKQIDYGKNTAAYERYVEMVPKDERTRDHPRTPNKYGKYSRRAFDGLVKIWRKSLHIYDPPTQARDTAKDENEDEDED

Measured: binding result

GUGCCAAAAAGGCUCUUUUCAGAGCCACCCA (structured_RNA) [SL RNA]
binds: all assays above
